Test: yeast display, Sf9 membrane polyspecificity reagent, FACS + sequencing; frameworks hold sequencing errors
Summary of the method: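 Sorting gates, low and high (top ~1%), were placed on anti-HA fluorescence to track expression and on streptavidin fluorescence to track reagent binding. A clone's polyreactivity label is taken from the gate it came out of. The reagent was 10% biotinylated, detergent-solubilized Sf9 membrane, applied for 1 hour at 4 °C to galactose-induced yeast display cells.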

| Sequence | polyreactivity (PSR sort gate) |
| --- | --- |
| QVQLQESGGGLVQAGGSLRLSCAASGTITQEDWMGWYRQAPGKEREFVAAIGLGSNTNYADSLKGRFTISRDNAKNTVYLQMNSLKPEDTGVYYCAVSVWQYSDHVYRGQGTQVTVSS | low polyreactivity |
| QVQLVESGGGLVQAGGSLRLICAASGRTFDLYAMGWCRQAPGKEREFVAAITKGGGSTYYADSVKGRFTISRDNAKNTVYLQMNSLKPEDTAVYYCAARKYKRIYRISSGIGYYWGQGTQVTVSS | high polyreactivity |
| QVQLVESGGGLVQAGGSLRLSCAASGSILIVYAMGWYRQAPGKERELVAAITRGGRTNYADSVKGRFTISRDYAKNTVYLQMNSLKPEDPAVYYCAAYTESYGGSDYDYWGQGTQVTVSS | high polyreactivity |
| QVQLQESGGGLVQEGGSLRLSCAASGNISPPADMGWYRQAPGKERELVASIGTGGTTNYADSVKGRFTISRDNAKNTVYLQMNSLKPDDTAVYYCAAVRYEYNPYDYWGQGTQVTVRS | low polyreactivity |
| QVQLVESGGGLVKEGGSLRLSCAASGITFSWNAMGWYRQAPGKERELVAAISSSGGSTYYADSVKGRFTISRDYAKNTVYLLMNSLKPEDTAVYFCNADRFWFHWVYSRYHYDYWGQGTQVTVSS | high polyreactivity |
| QFQLVESGRGLVQAVGSHRLRCAASGSILLKYAMGWYRQATGKEMELVAAITYRGASTHYADSVKGRFTISRDNAKNTVYLQMNSLKPEDTAVYYCAARGWVYYASEMDYWGQGTQVTVSS | low polyreactivity |
| QVQLVESGGGLVQAGGSLRLICAASGNIFYIYAMVWDRQAPWKERELVAAISWSCCSTYYADSVKGRFTISRDNAKNTVYCQMNSLKPEDTSVYYCDVEFTPKRWVSYRTMYSWGQGTQVTVSS | high polyreactivity |
| QVQLVESGGGLVQAGGSLRLSCAASGYTFYVYTMGWYRQAPGKERELVAAISGSGTSTYYADSVKGRFTISRDNAKNTVYFQMNSLKPVDTAVYYCAAEDYSRDVYSYDYWGQGTQVTVSS | low polyreactivity |
| QVQLVESGGGLVQAGGSLRLSCAASGIIFYRNAMGWYRQAPGKERELVAGITSGGSTYYADSVKGRFTISRDNAKNTVYLQMNSLKPEYTAVYYCAAYYRASQRYLQYGYWGQGTQVTVSS | high polyreactivity |
| QVQLVESGGGLVQAGGSLRLSCAASGSTFRGYAMGWYRQAPGKERELVAAISRSGGSTYYADSVKGRFTISRDNAKNTVYLQMNSLKPEDTAVYYCNARSSKRSSRGYDYWGQGTQVTVSS | high polyreactivity |
| QVHLVESGGGLVQAGGSLRLSCAASGNTFRWYDMGWYRQAPGKERELVAAITSSGSTTYYADSVKGRFTISRDNAKNTVYLQMNSLKPEDTAVFYCAARNYGPYDYWGQGTQVTVSS | low polyreactivity |
| QVHLVESGGGLVQAGGSLRLSCAATGRIFVPYVMGWYRQAPGKERELVASISDSDTSTYYADSVKGRFTISRDNAKNTVYLQMNSLKPEDNAVYYCNVDYWGQGTQVTVSS | low polyreactivity |
| QVQLEESGGGLVQAGGSLRLSCAASGRIIGGYAMGWYRQAPGKERELVAGIRGGTSTYYADSVKGRFTISRDNAKNTVYLQMNSQKPEDTAVYYCNARSLGRKYDYWGQGTQVTVSS | low polyreactivity |
| QVQLVESGGGLVQAGGSLSLTCAAYGRTITRYVMGWYRQAPGKERELVAYISRGGSTNYADSVKGRFTISRDNAKNTVYLQMNSLKPEDSAVYYCAARFSWGGYYSTTYPLTHDYWGQGTQVNVSS | high polyreactivity |
| QVQLVASGGALVQAGGSLRLSCAASGRISTYTMGWYRQGPGKERELVATISTDASTNYADSVKGRFTISRDNAKNTVYLQMNSLKPEATAVYYCAAVIVNQDYDYWGQGTQLTVSS | low polyreactivity |
| QVQLVESGGGLVQAGGSLRLSCAASGRTFRYYDMGWYRQATGKERELVARISISGAGTYYADSVKGRFTISRDNAKNTVYLQINSLKPEDTAVYYCAADLFWWQKTNSGGDYWGQGTQVTVSS | low polyreactivity |

| Sequence | polyreactivity (PSR sort gate) |
| --- | --- |
| QVQLVESGGCLVQEGGSLRLSCAASGITFYLYAMGWYSQGPGKERELVATISRSGGSTYADSVKGRFTISRDNAKNNVYLQRNSLKPEDTAVDYCNADGWYGYWGQGTQVTVSS | low polyreactivity |
| QVQLVESGGGLVQAGGSLRLSCAASGRIVYSNTMGWYRQAPGKERELVARIDTGGGSTYADSVKGRFTISRDNAKNTVYLQMNSLKPEDTAVYYCNKKGRWRSWGSTSLVSMDYWGQGTQVTVSS | low polyreactivity |
| QVQLVESGGGLVQAGGSLRLSCAASGSIFYSYAMGWYRQAPGTERELVAAISWDASTYYADSVKGRFTISRDNAKNTVYLQMNSLKPEDTAVYYCNADIPYYFVYDAYDYWGQGTQVTVSS | low polyreactivity |
| QVQLVESGGGLVQAGGSLRLSCAASGRTFYPYAMGWYRQAPGKERELVARISASGGSTYYADSVKGRFTISRDNAKNTVYLQMNSLKTEDTAVYYCARESFWRTLMDYWGQGTQVTVSS | high polyreactivity |
| QVQLVESGGGLVQAGGSLRLSCAASGYTFRSNTMGWYRQAPGKERELVASINQSGGRTYYADSVKGRFTISRDNAKNTVYFQMNSLKPEDTAVYYCATRGYNYYAHNYWGQGTQVTVSS | high polyreactivity |
| QVQLVESGGGLVQAGGSLRLSCAASGFTFRKYAMGWYRQAPGKERELVAGISWSGGTTYYADSVKGRFTISRDNAKNTVYLQMNSLKPEDTAVYYCNAKRVQVFAGYSYDYWGQGTQVTVSS | high polyreactivity |
| QVQLVDSGGGLVQAGGSLRLSCAASGRIFGQYAMGWYRDATGKERELVAAISWRGGTTYYADSVKGRFTISRDNAKNTVYLQMNSLKPEDTAVFYCNADVWVYPYDYWGQGTQVTVSS | low polyreactivity |
| QVQLVESGGGLVQAGGSLRLSCAASGFICVHKAMGWYREAPGNERELVAAITWSGGRTYYADSVKGRCTISRDKAKNTVYLQKNSLKPEDTAVYYCATTVNSHVPGVSKYYYWGHGTQVTVSS | high polyreactivity |
| QVQLVESGGGLVQAGGSLRLSCAASGRIFGGYAMGWYRQAPGKERELVAAISRSGGSTYYADSVKGRFTISRDNAKNTVYLQMNSLKPEDTAVYYCNVASKRALSRYKGYYWGQGTQVTVSS | high polyreactivity |
| QVQLVESGGGLVQAGGSLRLSCAASGRIFVVYAMGWYRQAPGKERELVAAITYGGGSTHYADSVKGRFTISRDNAKNTVYLQINSLIPEDTAVYYCAADLFYHSYGYEYWGQGTQVTVSS | low polyreactivity |
| QVQLVESGGGLVQAGGSLRLSSAASGRIFTYYAMGWYRQAPGKVREVVAAISFRGASTYYADSVKGRVTISRDYAQNTVYLQMHSLKPEDTAVYYGAAERIARPTIDYWGQGTQVTVSS | low polyreactivity |
| QVQLVESGVGLVQAGGSHRLSCAASGSILAGNVMGWYRQAPGKERELVAAITRSGTSTYYADSVKGRFTISRDNAKNTVYLQMNSLKPEDTAVYYCNSVRRVGFRGRYTDGYWGQGTQVTVSS | high polyreactivity |
| QVQLQESGGGLVQAGGSLRLSCAASGSISRYYDMGWYRQAPGTEREFVAGISGGAITYYADRVKGRFTISRDNAKNTVYLQMNSLKPEDTAVDYCAADTGVYLYHSYWGQGTQVTVSS | low polyreactivity |
| QVQLVESGGGLVQAGGSLRLSCAASGRTFSRNAMGRYRQAPGKERELVATITSDGSTNYADSVKGRFTISRDNAKNTVYLQMNSLKPEDTAVYYCAAGEQSSIIGAHDYWGQGTQVTVSS | low polyreactivity |
| QVQLVESGGGLVQAGGSLRLSCAASGSTFVAYAMGSYRQAPGKERELVAAISASGVRTYYADSVKGRFTISRDNAKNTVYLQMNSLKPEDTAVYYCAATVFRKYRYGYWGQGTQVTVSS | high polyreactivity |
| QVQLVESGGGLVQAGGSLRLSCAASGNIFGRYAMGWYRQAPGKARELVAAISGSGGRTYYADSVKGRFTISRYNAKKTVYLQMNSLKPEDTAVYYCAKVFALRGYDYWGQGTQVTVSS | high polyreactivity |
